This data set concerns the target T1, annexin V protein.
T1 chain: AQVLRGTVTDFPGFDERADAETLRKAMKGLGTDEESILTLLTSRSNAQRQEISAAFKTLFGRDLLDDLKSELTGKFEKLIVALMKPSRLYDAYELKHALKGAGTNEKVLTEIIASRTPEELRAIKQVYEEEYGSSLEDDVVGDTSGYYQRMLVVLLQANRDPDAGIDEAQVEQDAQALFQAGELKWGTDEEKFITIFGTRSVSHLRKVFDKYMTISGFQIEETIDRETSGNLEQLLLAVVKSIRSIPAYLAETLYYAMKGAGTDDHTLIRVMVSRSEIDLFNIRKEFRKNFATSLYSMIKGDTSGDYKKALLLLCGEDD

B1: recombinant full-length delta PKC (protein)
chain: MAPFLRISFNSYELGSLQVEDEASQPFCAVKMKEALSTERGKTLVQKKPTMYPEWKTTFDAHIYEGRVIQIVLMRAAEDPVSEVTVGVSVLAERCKKNNGKAEFWLDLQPQAKVLMCVQYFLEDGDCKQSMRSEEEAKFPTMNRRGAIKQAKIHYIKNHEFIATFFGQPTFCSVCKEFVWQKQGYKCRQCNAAIHKKCIDKIIGRCTGTATNSRDTIFQKERFNIDMPHRFKVYNYMSPTFCDHCGSLLWGLVKQGLKCEDCGMNVHHKCREKVANLCGINQKLLAEALNQVTQRSSRKLDTTESVGIYQGFEKKPEVSGSDILDNNGTYGKIWEGSTRCTLENFTFQKVLGKGSFGKVLLAELKGKDKYFAIKCLKKDVVLIDDDVECTMVEKRVLALAWESPFLTHLICTFQTKDHLFFVMEFLNGGDLMFHIQDKGRFELYRATFYAAEIICGLQFLHSKGIIYRDLKLDNVMLDRDGHIKIADFGMCKENIFGEGRASTFCGTPDYIAPEILQGLKYSFSVDWWSFGVLLYEMLIGQSPFHGDDEDELFESIRVDTPHYPRWITKESKDIMEKLFERDPDKRLGVTGNIRIHPFFKTINWSLLEKRKVEPPFKPKVKSPSDYSNFDPEFLNEKPQLSFSDKNLIDSMDQEAFHGFSFVNPKFEQFLDI
For B1, the “histone phosphorylation in an in vitro kinase reaction (SDS-PAGE, autoradiography)” value is on record as “The addition of annexin V to delta PKC in the presence of PS/DAG (Lane 3) increases the catalytic activity of delta PKC”.

B2: purified full-length epsilon PKC (protein)
chain: MVVFNGLLKIKICEAVSLKPTAWSLRHAVGPRPQTFLLDPYIALNVDDSRIGQTATKQKTNSPAWHDEFVTDVCNGRKIELAVFHDAPIGYDDFVANCTIQFEELLQNGSRHFEDWIDLEPEGRVYVIIDLSGSSGEAPKDNEERVFRERMRPRKRQGAVRRRVHQVNGHKFMATYLRQPTYCSHCRDFIWGVIGKQGYQCQVCTCVVHKRCHELIITKCAGLKKQETPDQVGSQRFSVNMPHKFGIHNYKVPTFCDHCGSLLWGLLRQGLQCKVCKMNVHRRCETNVAPNCGVDRIAKVLADLGVTPDKITNSGQRRKKLIAGAESPQPASGSSPSEEDRSKSAPTSPCDQEIKELENNIRKALSFDNRGEEHRAASSPDGQLMSPGENGEVRQGQAKRLGLDEFNFIKVLGKGSFGKVMLAELKGKDEVYAVKVLKKDVILQDDDVDCTMTEKRILALARKHPYLTQLYCCFQTKDRLFFVMEYVNGGDLMFQIQRSRKFDEPRSRFYAAEVTSALMFLHQHGVIYRDLKLDNILLDAEGHCKLADFGMCKEGILNGVTTTTFCGTPDYIAPEILQELEYGPSVDWWALGVLMYEMMAGQPPFEADNEDDLFESILHDDVLYPVWLSKEAVSILKAFMTKNPHKRLGCVASQNGEDAIKQHPFFKEIDWVLLEQKKIKPPFKPRIKTKRDVNNFDQDFTREEPVLTLVDEAIVKQINQEEFKGFSYFGEDLMP
B2: the “histone phosphorylation in an in vitro kinase reaction (SDS-PAGE, autoradiography)” value is “annexin V does not increase the activity of epsilon PKC”.

For the origin of these results see patent US20090155236.
